According to patent US20140086927A1 (FUJITA HEALTH UNIVERSITY, published 2014):

Assays:
[1] = target: Fuk85HA39-319 (truncated HA on 293T cells) (Influenza A virus H3N2, …, UniProt P12589 39-319); test: flow cytometry on 293T cells expressing truncated HA
[2] = target: Fuk85HA44-309 (truncated HA on 293T cells) (Influenza A virus H3N2, …, UniProt P12589 44-309); test: as above

B1: F005-126 antibody (IgG) (antibody, V domains shown)
VH: QVQLVQSGAEVKKPGASVTVSCQVSGYTLTSYGLSWVRQAPGQGLEWVGWINTYDGQTKYVKKFQGRVTMTTHTGTNTAYMEMKSLRSDDTAVYYCARVEGVRGVMGFHYYPMDVWGQGTMVTVSS
VL: QSVLTQPPSVSGAPGQRVTISCTGSSSNIGAGYAVHWYQQLPGTAPKLLISGNSNRPSGVPDRFSGSKSGTSASLAITGLQAEDEADYYCQSYDSSLSGSVFGGGTKLTVLG
notes: also called F5126; F05126
binding result [1]: binds
binding result [2]: no binding
